Measurements reported in patent publication US6849598B1, “Therapeutic compositions comprising bactericidal/permeability-increasing (BPI) protein products” (XOMA, priority 1995, dated 2005).

Tests used:
Assay in all cases: Bactericidal activity in water, TSB, CSMHB or serum, CFU after 24 hours (Example 5)
Type in all cases: cell-based
S. pneumoniae = settings: Control 3 × 10^5
Experimental: (§1) The bactericidal activity of therapeutic compositions comprising BPI protein product and PLURONIC F68, P103, P104, P105 or P123 were evaluated against the S. aureus and A. baumannii organisms of Example 1, the S. pneumoniae organism of Example 3, an E. faecium organism (Microscan® ID No. 16866), and a strain of P. aeruginosa from the American Type Culture Collection (ATCC No. 19660). Therapeutic compositions were formulated by adding the appropriate amount of poloxamer to a stock solution of 2.2 mg/mL rBPI21 (5 mM sodium citrate, 150 mM NaCl, without poloxamer), to achieve the desired 0.2% (w/v) poloxamer concentration, followed by sterile filtration. Formulated product was stored at 2-8° C. for up to 6 months. Sterile stock solutions of poloxamer were made by dissolving the poloxamer paste in water for injection (WFI, Kendall-McGaw) with mixing to a 1-5% concentration (w/v) at room temperature, followed by sterile filtration. Assays were conducted in 96-well microtiter plates using WFI, tryptic soy broth (TSB, Remel, Lenexa, Kans.), Mueller-Hinton Broth plus Cations (CSMHB, Remel), or 40% pooled human serum in CSMHB (Sigma, St. Louis, Mo.) as growth media, according to the general procedure described above in Examples 2 and 3.

S. aureus = test system: S. aureus
Experimental: as §1

[1] = test system: E. faecium (Microscan® ID No. 16866)
Experimental: as §1

A. baumannii = test system: A. baumannii
Experimental: as §1

B1: rBPI21: expression product of DNA encoding amino acid 1 to approximately 193 or 199 of BPI holoprotein, cysteine 132 substituted with alanine (protein, UniProt P17213 32-224, looked up, variant C132A)
chain: VNPGVVVRISQKGLDYASQQGTAALQKELKRIKIPDYSDSFKIKHLGKGHYSFYSMDIREFQLPSSQISMVPNVGLKFSISNANIKISGKWKAQKRFLKMSGNFDLSIEGMSISADLKLGSNPTSGKPTITASSCSSHINSVHVHISKSKVGWLIQLFHKKIESALRNKMNSQVCEKVTNSVSSELQPYFQTL
S. pneumoniae
  colony forming units after 24 hours of incubation: 5 × 10^4
S. aureus; Serum (40% pooled human serum in CSMHB), Control 4.2 × 10^5
  colony forming units after 24 hours of incubation: >1 × 10^5
S. aureus; TSB, Control 5.4 × 10^5
  colony forming units after 24 hours of incubation: 5.7 × 10^5
S. aureus; Water, Control 8.2 × 10^5
  colony forming units after 24 hours of incubation: 3.2 × 10^4
[1]; TSB, Control 5 × 10^5
  colony forming units after 24 hours of incubation: 5 × 10^5
[1]; Water, Control 4 × 10^5
  colony forming units after 24 hours of incubation: 100
A. baumannii; Serum (40% pooled human serum in CSMHB), Control 2 × 10^5
  colony forming units after 24 hours of incubation: 2 × 10^5
A. baumannii; TSB, Control 3 × 10^6
  colony forming units after 24 hours of incubation: 6 × 10^2
A. baumannii; Water, Control 2 × 10^6
  colony forming units after 24 hours of incubation: <100
